Laboratory results from patent US20200325225A1 (Hoffmann-La Roche, published 2020).

Molecular target: T1, murine FAP (murine, UniProt P97321 27-761, limits assumed)
T1 construct: also called mouse FAP; murine FAP (Analyte 2)
Assay: SPR (Biacore T200, 25 C, HBS-EP), simultaneous binding; muFAP-4-1BB held on immobilized murine 4-1BB Fc(kih); murine FAP 500 nM as second analyte, 30 uL/min, 90 s, dissociation 120 s
Procedure: All SPR experiments were performed on a Biacore T200 at 25° C. with HBS-EP as running buffer (0.01 M HEPES pH 7.4, 0.15 M NaCl, 3 mM EDTA, 0.005% Surfactant P20, Biacore, Freiburg/Germany). […] Immobilization levels up to 600 resonance units (RU) were used.
Murine FAP was injected as second analyte with a flow of 30 μL/minute through the flow cells over 90 seconds at a concentration of 500 nM. The dissociation was monitored for 120 sec. Bulk refractive index differences were corrected for by subtracting the response obtained in a reference flow cell, where no protein was immobilized.

T1 sequence (P97321 27-761 limits assumed): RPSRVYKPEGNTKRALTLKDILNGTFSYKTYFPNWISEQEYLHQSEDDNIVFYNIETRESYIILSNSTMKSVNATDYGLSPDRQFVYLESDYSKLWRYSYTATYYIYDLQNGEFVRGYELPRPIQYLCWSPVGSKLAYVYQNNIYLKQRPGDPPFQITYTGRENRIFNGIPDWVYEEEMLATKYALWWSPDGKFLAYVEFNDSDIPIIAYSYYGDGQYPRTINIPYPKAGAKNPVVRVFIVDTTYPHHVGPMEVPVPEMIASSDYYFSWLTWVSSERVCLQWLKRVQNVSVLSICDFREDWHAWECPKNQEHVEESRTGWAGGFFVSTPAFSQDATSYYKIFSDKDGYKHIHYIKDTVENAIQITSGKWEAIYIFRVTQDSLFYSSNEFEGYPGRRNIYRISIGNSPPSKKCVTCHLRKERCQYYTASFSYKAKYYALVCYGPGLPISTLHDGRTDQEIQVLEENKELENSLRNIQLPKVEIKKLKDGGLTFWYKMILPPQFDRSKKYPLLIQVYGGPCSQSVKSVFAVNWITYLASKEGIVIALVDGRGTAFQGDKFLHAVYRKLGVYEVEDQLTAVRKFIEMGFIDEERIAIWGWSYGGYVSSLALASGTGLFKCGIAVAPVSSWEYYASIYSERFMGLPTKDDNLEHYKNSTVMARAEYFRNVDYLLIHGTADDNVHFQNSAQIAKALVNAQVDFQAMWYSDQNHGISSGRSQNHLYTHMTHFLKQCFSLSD

binding result: binds
B1: 4-1BB (MU137-1)/FAP(28H1) DAPG IgG1 2+1 (Fc-DD-VL) (bispecific antibody)
heavy 1: DVQLVESGGGLVQPGRSLKLSCAASGFIFSYFDMAWVRQAPTKGLEWVASISPSGDIPYYRDSVKGRFTVSRENAKSSLYLQMDSLRSEDTATYYCARRSYGGYSELDYWGQGVMVTVSSAKTTPPSVYPLAPGSAAQTNSMVTLGCLVKGYFPEPVTVTWNSGSLSSGVHTFPAVLQSDLYTLSSSVTVPSSTWPSQTVTCNVAHPASSTKVDKKIVPRDCGCKPCICTVPEVSSVFIFPPKPKDVLTITLTPKVTCVVVAISKDDPEVQFSWFVDDVEVHTAQTKPREEQINSTFRSVSELPIMHQDWLNGKEFKCRVNSAAFGAPIEKTISKTKGRPKAPQVYTIPPPKEQMAKDKVSLTCMITNFFPEDITVEWQWNGQPAENYDNTQPIMDTDGSYFVYSDLNVQKSNWEAGNTFTCSVLHEGLHNHHTEKSLSHSPGGGGGSGGGGSGGGGSGGGGSEIVLTQSPGTLSLSPGERATLSCRASQSVSRSYLAWYQQKPGQAPRLLIIGASTRATGIPDRFSGSGSGTDFTLTISRLEPEDFAVYYCQQGQVIPPTFGQGTKVEIK
heavy 2: DVQLVESGGGLVQPGRSLKLSCAASGFIFSYFDMAWVRQAPTKGLEWVASISPSGDIPYYRDSVKGRFTVSRENAKSSLYLQMDSLRSEDTATYYCARRSYGGYSELDYWGQGVMVTVSSAKTTPPSVYPLAPGSAAQTNSMVTLGCLVKGYFPEPVTVTWNSGSLSSGVHTFPAVLQSDLYTLSSSVTVPSSTWPSQTVTCNVAHPASSTKVDKKIVPRDCGCKPCICTVPEVSSVFIFPPKPKDVLTITLTPKVTCVVVAISKDDPEVQFSWFVDDVEVHTAQTKPREEQINSTFRSVSELPIMHQDWLNGKEFKCRVNSAAFGAPIEKTISKTKGRPKAPQVYTIPPPKKQMAKDKVSLTCMITNFFPEDITVEWQWNGQPAENYKNTQPIMKTDGSYFVYSKLNVQKSNWEAGNTFTCSVLHEGLHNHHTEKSLSHSPGGGGGSGGGGSGGGGSGGGGSEVQLLESGGGLVQPGGSLRLSCAASGFTFSSHAMSWVRQAPGKGLEWVSAIWASGEQYYADSVKGRFTISRDNSKNTLYLQMNSLRAEDTAVYYCAKGWLGNFDYWGQGTLVTVSS
light: DIQMTQSPASLSASLEEIVTITCQASQDIGNWLAWYHQKPGKSPQLLIYGTSSLADGVPSRFSGSSSGSQYSLKISRLQVEDIGIYYCLQAYGAPWTFGGGTKLELKRADAAPTVSIFPPSSEQLTSGGASVVCFLNNFYPKDINVKWKIDGSERQNGVLNSWTDQDSKDSTYSMSSTLTLTKDEYERHNSYTCEATHKTSTSPIVKSFNRNEC
notes: It is a mouse IgG1 with DAPG (D265A, P329G) and DD/KK heterodimerisation mutations, bivalent for mouse 4-1BB and monovalent for FAP; also called muFAP-4-1BB; mouse surrogate muFAP-4-1BB
